This passage reports OD450nm average value, CPE number and neutralizing titer (virus neutralization test, CPE on CRFK cells) (titer (1:x dilution)) results from patent US20230295272A1.

Test [1] concerns the target canine parvovirus (CPV), CPV-2c TS02 strain, purified virus (canine parvovirus CPV-2c (TS02 strain)). Briefly: indirect ELISA, purified CPV coated at 10 ug/mL, purified nanobody diluted 1:10, anti-His-HRP. (An ELISA detects its analyte on a solid surface through an enzyme-linked reagent.)
For test [2] the target is unchanged. The test can be described thus: indirect ELISA, purified CPV coated at 10 ug/mL, purified nanobody diluted 1:100, anti-His-HRP.
For test [3] the target is unchanged. The test can be described thus: cell-based or functional assay.
Test [4] shares this target. Briefly: indirect ELISA, purified CPV coated at 10 ug/mL, purified nanobody diluted 1:10,000, anti-His-HRP.
For test [5] the target is unchanged. Briefly: indirect ELISA, purified CPV coated at 10 ug/mL, purified nanobody diluted 1:1,000, anti-His-HRP.

B1: canine parvovirus (CPV) nanobody CPV-VHH-E3 (VHH)
VHH: QLQLVESGGGSVQPGGSLRLSCAASGFTLDFYRVGWFRQAPGKERQGVACIGSAGDRTFYVDSVKGRFTISKDNTKNTVYLQMNSLKPEDTAVYYCAAVLSPRITSVQAMCTHHGEGFDYWGQGTQVTVSS
For the molecule B1, the OD450nm average value worked out at 2.81 OD450nm in test [1], 2.6 OD450nm in test [2], 0.17 OD450nm in test [4] and 2.24 OD450nm in test [5]. The molecule further returned a CPE number at antibody dilution 1:10 (of 3 wells with CPE) in test [3] of 3. In test [3], this molecule came in with a neutralizing titer (virus neutralization test, CPE on CRFK cells) (titer (1:x dilution)) of less than 10.
